PMC12820186

B1: proCsCYP707A4 p4 probe (dsDNA)
DNA 1: GCGAACGTCGTGTGAAGTACTTCATGGAGACGAATA
DNA 2: TATTCGTCTCCATGAAGTACTTCACACGACGTTCGC
B2: proCsCYP707A4 p3 probe (dsDNA)
DNA 1: TTGCCAACTAATTTCATGTTCAATCAATGAAAGTGA
DNA 2: TCACTTTCATTGATTGAACATGAAATTAGTTGGCAA
B3: proCsCYP707A4 p2 probe (dsDNA)
DNA 1: CGTCGTGTGAAGTACTTCATGGAGACGAATAAAAG
DNA 2: CTTTTATTCGTCTCCATGAAGTACTTCACACGACG

Molecular target: T1, CsEIN3 DNA-binding domain (CsEIN3-BD) (cucumber, UniProt A0A0A0LXB4 1-412)
T1 sequence: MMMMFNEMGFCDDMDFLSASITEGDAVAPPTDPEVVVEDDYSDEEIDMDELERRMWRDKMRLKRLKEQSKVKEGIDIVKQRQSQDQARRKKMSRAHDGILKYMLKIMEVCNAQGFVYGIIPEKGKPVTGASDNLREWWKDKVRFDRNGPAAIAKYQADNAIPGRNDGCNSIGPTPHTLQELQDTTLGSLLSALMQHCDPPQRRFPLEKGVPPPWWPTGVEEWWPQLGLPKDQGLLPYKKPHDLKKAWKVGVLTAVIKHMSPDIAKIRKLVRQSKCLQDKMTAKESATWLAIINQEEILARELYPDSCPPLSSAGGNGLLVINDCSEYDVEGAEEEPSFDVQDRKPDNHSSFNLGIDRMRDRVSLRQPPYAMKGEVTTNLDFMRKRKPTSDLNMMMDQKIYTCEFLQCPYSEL
Assay: EMSA

Binder | binding result
B1 | no binding
B2 | no binding
B3 | no binding
